Substitutions are numbered along the chain they refer to.
T1: human 5T4 (trophoblast glycoprotein), endogenous on the cell surface (human, UniProt Q13641 32-420)
T1 construct: also called TPBG; 5T4 oncofetal antigen
T1 sequence: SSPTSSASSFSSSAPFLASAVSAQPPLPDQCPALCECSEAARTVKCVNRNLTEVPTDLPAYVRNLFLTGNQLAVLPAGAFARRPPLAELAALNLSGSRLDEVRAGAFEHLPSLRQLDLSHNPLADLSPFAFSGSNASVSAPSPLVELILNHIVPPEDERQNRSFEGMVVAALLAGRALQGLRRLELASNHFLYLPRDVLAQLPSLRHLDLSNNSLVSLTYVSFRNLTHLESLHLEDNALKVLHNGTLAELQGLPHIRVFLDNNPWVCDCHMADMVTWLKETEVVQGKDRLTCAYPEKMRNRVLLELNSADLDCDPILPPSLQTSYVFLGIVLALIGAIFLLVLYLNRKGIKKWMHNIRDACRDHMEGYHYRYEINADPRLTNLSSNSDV

B1: hz16G10v1 sdAb-Fc (Fc fusion)
chain: EVQLVESGGGEVQPGGSLRLSCAASGRPFSSSAMGWFRQAPGKGRETVSAVSRNGGSSYYAESVKGRFTISRDNAKNTLYLQMSSLRAEDTAVYYCAARSAAYSRSSETYTEKHDYTYWGQGTLVTVKP
notes: Humanized variant of 16G10, linked to a human Fc; not shown: human Fc
B2: hz16G10v2 sdAb-Fc (Fc fusion)
chain: B1 chain with G44E, S49A
notes: as for B1
B3: hz16G10v3 sdAb-Fc (Fc fusion)
chain: B1 chain with G44E, S49A, L79V
notes: as for B1
B4: hz16G10v4 sdAb-Fc (Fc fusion)
chain: B1 chain with G44E, S49A, N54Q, L79V
notes: as for B1
B5: hz16G10v6 sdAb-Fc (Fc fusion)
chain: B1 chain with G44E, S49A, G55A, L79V
notes: as for B1
B6: hz16G10v8 sdAb-Fc (Fc fusion)
chain: B1 chain with G44E, S49A, E62D, S63F, L79V
notes: as for B1
B7: hz16G10v5 sdAb-Fc (Fc fusion)
chain: B1 chain with G44E, S49A, N54G, L79V
notes: as for B1
B8: hz12E9v4 sdAb-Fc (Fc fusion)
chain: EVQLVESGGGEVQPGGSLRLSCAASRRPFSSKTMAWFRQAPGKEREFVAAVRWIGGATRYTESVKGRFTISRDNAKNTVYLQMSSLRAEDTAVYYCAAGQAWGTKFTDYSDWGQGTLVTVKP
notes: Humanized variant of 12E9, linked to a human Fc; not shown: human Fc
B9: hz12E9v6 sdAb-Fc (Fc fusion)
chain: B8 chain with P14A, A40T, T61A
notes: as for B8
B10: hz12E9v2 sdAb-Fc (Fc fusion)
chain: B8 chain with T61A, V79L
notes: as for B8
B11: hz12E9v3 sdAb-Fc (Fc fusion)
chain: B8 chain with T61A
notes: as for B8
B12: hz12E9v1 sdAb-Fc (Fc fusion)
chain: B8 chain with E44G, T61A, V79L
notes: as for B8
B13: hz14B5v4 sdAb-Fc (Fc fusion)
chain: EVQLVESGGGEVQPGGSLRLSCAASERPFGTYAMGWFRQAPGKERDLVAAVSRNGGASQYAESVKGRFTISRDNAKNTVYLQMSSLRAEDTAVYYCAARSAAYSRSSEVYTGKDEYYYWGQGTLVTVKP
notes: Humanized variant of 14B5, linked to a human Fc; not shown: human Fc
B14: hz14B5v6 sdAb-Fc (Fc fusion)
chain: B13 chain with G55T, V79M
notes: as for B13
B15: hz14B5v3 sdAb-Fc (Fc fusion)
chain: B13 chain with V79M
notes: as for B13
B16: hz14B5v10 sdAb-Fc (Fc fusion)
chain: B13 chain with A61G, V79M
notes: Humanized variant of 14B5, linked to a human Fc; also called hz14B510; not shown: human Fc
B17: hz14B5v7 sdAb-Fc (Fc fusion)
chain: B13 chain with N54Q, V79M
notes: as for B13
B18: hz14B5v8 sdAb-Fc (Fc fusion)
chain: B13 chain with N54G, V79M
notes: as for B13
B19: hz14B5v1 sdAb-Fc (Fc fusion)
chain: B13 chain with E44G, A49S, V79L
notes: as for B13
B20: hz14B5v9 sdAb-Fc (Fc fusion)
chain: B13 chain with A61G, E62D, V79M
notes: as for B13
B21: hz14B5v5 sdAb-Fc (Fc fusion)
chain: B13 chain with G55A, V79M
notes: as for B13

target: T1, human 5T4 (trophoblast glycoprotein), …; assay: flow cytometry (FL4H median), sdAb-Fc titrated on 5T4-positive T47D cells
Procedure: Specificity and relative affinity were assessed for purified sdAb-Fcs on 5T4-expressing cells. Binding of 5T4-sdAb-Fc fusion proteins was assessed by flow cytometry using 5T4-expressing cells. A titration series of the fusion protein was incubated with the 5T4-expressing cell lines (approximately 2.5×10⁴ to 5×10⁴ cells/well) for 30 minutes at 4 degrees Celsius in FACS Buffer (PBS 1% BSA, 0.1% NaN₃ pH 7.4) in 96 well plates. Following three wash steps in FACS buffer, an APC-conjugated anti-human Fcγ specific secondary antibody (Jackson ImmunoResearch) was added and incubated for 30 minutes at 4 degrees Celsius. Following three additional wash steps in FACS buffer bound antibody was detected via flow cytometry (IQue Intellicyte).
Humanized variant of the 5T4 sdAbs were tested for their ability to bind 5T4 expressing cells substantially as described in Example 2, and binding was compared to the parental sdAb. 5T4 expressing T47D cells were used in these studies. Results are shown in FIGS. 2A-2F, which confirm binding of the humanized variants. In some cases, binding was increased compared to the parental sdAb.

Row | EC50 (read off the curve) [nM] | binding result | Binder
1 | ~2 | – | B1
2 | ~2 | – | B2
3 | ~2 | – | B3
4 | ~9 | – | B4
5 | – | binds | B5
6 | – | binds | B6
7 | ~5 | – | B7
8 | ~0.2 | – | B8
9 | – | binds | B9
10 | ~0.2 | – | B10
11 | ~0.2 | – | B11
12 | – | binds | B12
13 | – | binds | B13
14 | – | binds | B14
15 | – | binds | B15
16 | – | binds | B16
17 | ~2 | – | B17
18 | ~2 | – | B18
19 | – | binds | B19
20 | – | binds | B20
21 | – | binds | B21

From patent publication US20210340273A1 (INHLBRX, published 2021)
